According to US20110262366A1 (published 2011):
Starred links: 1 amine or outer side, 2 acyl side, 3 side chain; linkers in the order of their positions; H or OH if unused. No end group written: not given here. NH(CH2)3(OCH2CH2)2O(CH2)3NH = C(CN[*:1])COCCOCCOCCCN[*:2]; Oregon Green = Oregon Green fluorescent reporter dye

Target: T1, NP-1/Fc (Neuropilin-1/Fc, R&D Systems)
T1 construct: Bought reagent; also called Npn-1
Test: competition with 250 pM ^125I-VEGF165 on NP-1/Fc-coated plates, 4° C., 2 h
Description: The next day all wells, even control wells lacking NP-1/Fc, were blocked 2 hrs with blocking buffer (1% BSA in D-PBS with 0.05% v/v Tween-20) then washed 4× with PBST (D-PBS/0.05% v/v Tween-20) before starting the assay. All points were derived from triplicate wells, and for each set of replicates in NP-1/Fc-coated wells, a companion set in the absence of the receptor was included. […] After addition of the appropriate solutions, microtiter plates were incubated at 4° C. for 2 hours. Following the incubation, plates were hand-washed 5 times with D-PBS containing 0.05% Tween-20 and 0.1% BSA. […] VEGF₁₆₅ (Cat. No. 100-20) was obtained from Peprotech.

T1 sequence (Q9QWJ9 22-855): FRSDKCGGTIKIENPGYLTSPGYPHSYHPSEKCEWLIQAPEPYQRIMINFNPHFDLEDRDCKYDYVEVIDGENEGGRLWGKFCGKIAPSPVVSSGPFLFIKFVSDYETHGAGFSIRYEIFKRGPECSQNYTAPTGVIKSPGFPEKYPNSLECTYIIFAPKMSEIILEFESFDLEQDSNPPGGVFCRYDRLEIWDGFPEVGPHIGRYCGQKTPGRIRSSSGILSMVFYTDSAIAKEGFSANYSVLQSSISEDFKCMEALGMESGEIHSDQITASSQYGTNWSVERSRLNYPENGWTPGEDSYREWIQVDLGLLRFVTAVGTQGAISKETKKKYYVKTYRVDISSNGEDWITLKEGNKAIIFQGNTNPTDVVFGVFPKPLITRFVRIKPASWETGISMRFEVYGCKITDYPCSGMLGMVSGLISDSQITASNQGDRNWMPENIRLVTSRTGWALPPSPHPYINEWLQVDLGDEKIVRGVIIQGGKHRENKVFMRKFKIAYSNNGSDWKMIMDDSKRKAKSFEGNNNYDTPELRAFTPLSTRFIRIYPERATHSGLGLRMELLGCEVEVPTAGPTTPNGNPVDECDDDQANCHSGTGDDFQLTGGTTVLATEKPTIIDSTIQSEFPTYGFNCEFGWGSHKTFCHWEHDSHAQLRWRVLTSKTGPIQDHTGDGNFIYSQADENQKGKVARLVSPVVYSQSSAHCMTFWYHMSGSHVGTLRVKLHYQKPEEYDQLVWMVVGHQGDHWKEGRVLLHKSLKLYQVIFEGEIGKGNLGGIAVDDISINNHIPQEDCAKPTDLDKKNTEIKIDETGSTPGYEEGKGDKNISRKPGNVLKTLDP

IC50: 8 µM
B1: Tetramer BRU-346: TKPPR-K(RPPKT)-K[K(RPPKT)TKPPR]-G-Z-OG (peptide)
chain: TKPPRKRPPKTKKRPPKTTKPPRG-{NH(CH2)3(OCH2CH2)2O(CH2)3NH-Oregon Green}
modifications: also: branched on lysine core: TKPPR units linked via C-terminal Arg to Lys side chains, letters 7-11 and 14-18 written reversed, not a linear chain
notes: also called Reverse Tetramer; tetrameric TKPPR linked to a different scaffold through the C-terminal amino acid
